One data set concerns the target plasma ADAMTS13 (human) (UniProt Q76LX8). Put plainly: cell-based or functional assay.
The target of another data set is T1, plasma ADAMTS13 (human, UniProt Q76LX8 75-1427).
T1 construct: Not purified; enzyme source was plasma (about 6 nM ADAMTS13 in PNP by a literature value); also called ADAMTS13 in PNP (pooled normal plasma)
T1 sequence (looked up): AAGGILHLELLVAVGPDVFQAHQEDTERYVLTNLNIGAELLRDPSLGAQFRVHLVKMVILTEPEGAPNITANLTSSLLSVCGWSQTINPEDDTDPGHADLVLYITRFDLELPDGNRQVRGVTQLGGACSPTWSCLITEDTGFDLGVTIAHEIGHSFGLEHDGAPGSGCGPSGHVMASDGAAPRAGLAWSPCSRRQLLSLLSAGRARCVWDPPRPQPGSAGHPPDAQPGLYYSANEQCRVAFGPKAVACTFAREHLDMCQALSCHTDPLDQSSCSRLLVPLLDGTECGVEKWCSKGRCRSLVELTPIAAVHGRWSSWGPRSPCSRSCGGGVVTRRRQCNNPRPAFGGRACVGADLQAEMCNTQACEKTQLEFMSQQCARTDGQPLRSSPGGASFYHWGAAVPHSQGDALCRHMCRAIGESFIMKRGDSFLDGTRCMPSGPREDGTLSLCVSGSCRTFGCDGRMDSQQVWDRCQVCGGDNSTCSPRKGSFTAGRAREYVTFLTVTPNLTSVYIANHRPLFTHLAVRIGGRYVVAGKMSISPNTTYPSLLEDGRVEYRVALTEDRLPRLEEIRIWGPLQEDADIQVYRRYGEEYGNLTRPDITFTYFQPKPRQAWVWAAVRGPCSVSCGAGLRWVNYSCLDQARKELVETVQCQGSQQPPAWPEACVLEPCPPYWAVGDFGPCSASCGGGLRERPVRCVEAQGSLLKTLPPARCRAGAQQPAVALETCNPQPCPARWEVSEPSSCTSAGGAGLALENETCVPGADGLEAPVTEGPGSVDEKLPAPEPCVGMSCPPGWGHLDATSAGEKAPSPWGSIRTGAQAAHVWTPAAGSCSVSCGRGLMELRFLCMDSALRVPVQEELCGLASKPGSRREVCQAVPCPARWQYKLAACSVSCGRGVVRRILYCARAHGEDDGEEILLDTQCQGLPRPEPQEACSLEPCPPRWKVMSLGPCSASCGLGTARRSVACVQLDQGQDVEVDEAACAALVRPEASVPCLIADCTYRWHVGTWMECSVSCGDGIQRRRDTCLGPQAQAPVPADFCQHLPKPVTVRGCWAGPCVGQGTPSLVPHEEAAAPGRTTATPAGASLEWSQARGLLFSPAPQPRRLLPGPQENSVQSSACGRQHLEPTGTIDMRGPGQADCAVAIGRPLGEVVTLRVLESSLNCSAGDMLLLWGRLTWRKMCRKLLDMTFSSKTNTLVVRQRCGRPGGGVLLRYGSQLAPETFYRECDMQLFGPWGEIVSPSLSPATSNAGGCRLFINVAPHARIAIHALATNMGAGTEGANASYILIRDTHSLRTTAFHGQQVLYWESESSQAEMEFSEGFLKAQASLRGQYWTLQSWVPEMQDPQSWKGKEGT
Put plainly: Michaelis-Menten kinetics of substrate cleavage by plasma ADAMTS13 (fluorescence). As for the experimental part:
In these experiments, FRETS-rVWF71 cleavage by plasma ADAMTS13 (50 μL) was assessed in 200 μL reactions containing 50 mM HEPES, pH 7.4, 10 mM CaCl₂, 150 mM NaCl, and 0.05% Tween-20, and varying concentrations of FRETS-rVWF71. The concentration of ADAMTS13 in PNP is ˜1.03 μg/ml (Feys, H. B., et al. J. Thromb. Haemost 4:955-62, 2006), or ˜6 nM for a molecular mass of 170 kDa. For each concentration of substrate, the relationship between product fluorescence and concentration was determined directly by cleaving FRETS-rVWF71 to completion with excess recombinant ADAMTS13 MDTCS (Feys, H. B., et al. J. Thromb. Haemost. 7:2088-95, 2009) and measuring the fluorescence. Control assays contained plasma that was completely deficient in ADAMTS13. The initial velocities (nM/min) as a function of substrate concentration were fitted to the Michealis-Menten equation by nonlinear regression analysis (Prism, GraphPad).

Another data set addresses T2, FRETS-rVWF71.
T2 chain: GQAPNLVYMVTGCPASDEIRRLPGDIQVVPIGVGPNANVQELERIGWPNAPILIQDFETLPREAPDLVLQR

Take “Hemoglobin (from UniProt P69905 2-142; P68871 2-147)”: the IC50 of inhibition of ADAMTS13 activity (FRETS-rVWF71 cleavage) with plasma ADAMTS13 (human) was 10 to 15 mg/mL.

B1: FRETS-rVWF71 (peptide)
peptide: T2 chain
modifications: Cys1610 modified with DyLight 633 (maleimide); N-terminal Gly modified with IRDye QC-1 (N-hydroxysuccinimidyl ester)
notes: Fluorogenic substrate; Recombinant peptide rVWF71 (extra N-terminal Gly = E1598G, N1610C, K1617R) labelled with fluorophore and quencher; also called VWF-rFRETS71; doubly-labeled substrate
As for B1, in the data set with plasma ADAMTS13, the binding result is reported as “binds”.

B2: recombinant ADAMTS13 MDTCS (protein)
chain: AAGGILHLELLVAVGPDVFQAHQEDTERYVLTNLNIGAELLRDPSLGAQFRVHLVKMVILTEPEGAPNITANLTSSLLSVCGWSQTINPEDDTDPGHADLVLYITRFDLELPDGNRQVRGVTQLGGACSPTWSCLITEDTGFDLGVTIAHEIGHSFGLEHDGAPGSGCGPSGHVMASDGAAPRAGLAWSPCSRRQLLSLLSAGRARCVWDPPRPQPGSAGHPPDAQPGLYYSANEQCRVAFGPKAVACTFAREHLDMCQALSCHTDPLDQSSCSRLLVPLLDGTECGVEKWCSKGRCRSLVELTPIAAVHGRWSSWGPRSPCSRSCGGGVVTRRRQCNNPRPAFGGRACVGADLQAEMCNTQACEKTQLEFMSQQCARTDGQPLRSSPGGASFYHWGAAVPHSQGDALCRHMCRAIGESFIMKRGDSFLDGTRCMPSGPREDGTLSLCVSGSCRTFGCDGRMDSQQVWDRCQVCGGDNSTCSPRKGSFTAGRAREYVTFLTVTPNLTSVYIANHRPLFTHLAVRIGGRYVVAGKMSISPNTTYPSLLEDGRVEYRVALTEDRLPRLEEIRIWGPLQEDADIQVYRRYGEEYGNLTRPDITFTYFQPKPRQA
On to B2, for which the “cleavage of the substrate (fluorescence)” value with FRETS-rVWF71 is “cleaving FRETS-rVWF71 to completion with excess recombinant ADAMTS13 MDTCS”.

B3: plasma ADAMTS13 (protein)
chain: T1 sequence (looked up)
As to B3, in the data set with FRETS-rVWF71, the Km result is recorded as “Km of 1.8 µM” and the kcat entry is “kcat of 6.8 min^-1 at 30 °C”.

The values are drawn from patent US20130023004A1 (WASHINGTON UNIVERSITY, published 2013).
